Drawing on US20200199241A1 (Chugai, published 2020), this text covers Kd for 55 molecules.

B1: IgG1-F850 (antibody)
heavy: QVQLQESGPGLVKPSETLSLTCAVSGHSISHDHAWSWVRQPPGEGLEWIGFISYSGITNYNPSLQGRVTISRDNSKNTLYLQMNSLRAEDTAVYYCARSLARTTAMDYWGEGTLVTVSSASTKGPSVFPLAPSSKSTSGGTAALGCLVKDYFPEPVTVSWNSGALTSGVHTFPAVLQSSGLYSLSSVVTVPSSSLGTQTYICNVNHKPSNTKVDKKVEPKSCDKTHTCPPCPAPELLGGPSVFLFPPKPKDTLYISRTPEVTCVVVDVSHEDPEVKFNWYVEGVEVHNAKTKPREEQYNSTYRVVSVLTVLHQDWLNGKEYKCKVSNKALPAPIEKTISKAKGQPREPQVYTLPPSRDELTKNQVSLTCLVKGFYPSDIAVEWESNGQPENNYKTTPPVLDSDGSFFLYSKLTVDKSRWQQGNVFSCSVMHEALHYHYTQKSLSLSP
light: not shown
notes: EU numbering; copies: 2 + 2
B2: IgG1-F907 (antibody)
heavy: B1 heavy with E282D, N317D, G318M
light: not shown
notes: EU numbering; copies: 2 + 2
B3: IgG1-F872 (antibody)
heavy: B1 heavy with L237K, S241K, E282D, N288E
light: not shown
notes: EU numbering; copies: 2 + 2
B4: IgG1-F899 (antibody)
heavy: B1 heavy with E282D, N317D, G318A
light: not shown
notes: EU numbering; copies: 2 + 2
B5: IgG1-F884 (antibody)
heavy: B1 heavy with E282D, Y438N
light: not shown
notes: EU numbering; copies: 2 + 2
B6: IgG1-F909 (antibody)
heavy: B1 heavy with E282D, N317D, G318P
light: not shown
notes: EU numbering; copies: 2 + 2
B7: IgG1-F905 (antibody)
heavy: B1 heavy with E282D, N317D, G318K
light: not shown
notes: EU numbering; copies: 2 + 2
B8: IgG1-F897 (antibody)
heavy: B1 heavy with E282D, N317D, N386A, N391A
light: not shown
notes: EU numbering; copies: 2 + 2
B9: IgG1-F912 (antibody)
heavy: B1 heavy with E282D, N317D, G318S
light: not shown
notes: EU numbering; copies: 2 + 2
B10: IgG1-F915 (antibody)
heavy: B1 heavy with E282D, N317D, G318W
light: not shown
notes: EU numbering; copies: 2 + 2
B11: IgG1-F879 (antibody)
heavy: B1 heavy with E282D, Y438G
light: not shown
notes: EU numbering; copies: 2 + 2
B12: IgG1-F889 (antibody)
heavy: B1 heavy with E282D, Y438T
light: not shown
notes: EU numbering; copies: 2 + 2
B13: IgG1-F861 (antibody)
heavy: B1 heavy with E282R
light: not shown
notes: EU numbering; copies: 2 + 2
B14: IgG1-F871 (antibody)
heavy: B1 heavy with L237R, S241K, E282D, T309Q, Q313A
light: not shown
notes: EU numbering; copies: 2 + 2
B15: IgG1-F896 (antibody)
heavy: B1 heavy with L237R, S241K, E282D, N288E, T309Q, Q313A, N317E
light: not shown
notes: EU numbering; copies: 2 + 2
B16: IgG1-F898 (antibody)
heavy: B1 heavy with E282D, N317E, N386A, N391A
light: not shown
notes: EU numbering; also called E898; copies: 2 + 2
B17: IgG1-F862 (antibody)
heavy: B1 heavy with E282S
light: not shown
notes: EU numbering; copies: 2 + 2
B18: IgG1-F877 (antibody)
heavy: B1 heavy with E282D, Y438E
light: not shown
notes: EU numbering; copies: 2 + 2
B19: IgG1-F895 (antibody)
heavy: B1 heavy with L237K, S241K, E282D, N288E, T309Q, Q313A, N317E
light: not shown
notes: EU numbering; copies: 2 + 2
B20: IgG1-F888 (antibody)
heavy: B1 heavy with E282D, Y438S
light: not shown
notes: EU numbering; copies: 2 + 2
B21: IgG1-F853 (antibody)
heavy: B1 heavy with E282H
light: not shown
notes: EU numbering; copies: 2 + 2
B22: IgG1-F863 (antibody)
heavy: B1 heavy with E282T
light: not shown
notes: EU numbering; copies: 2 + 2
B23: IgG1-F881 (antibody)
heavy: B1 heavy with E282D, Y438K
light: not shown
notes: EU numbering; copies: 2 + 2
B24: IgG1-F875 (antibody)
heavy: B1 heavy with E282D, Y438A
light: not shown
notes: EU numbering; copies: 2 + 2
B25: IgG1-F860 (antibody)
heavy: B1 heavy with E282Q
light: not shown
notes: EU numbering; copies: 2 + 2
B26: IgG1-F908 (antibody)
heavy: B1 heavy with E282D, N317D, G318N
light: not shown
notes: EU numbering; copies: 2 + 2
B27: IgG1-F902 (antibody)
heavy: B1 heavy with E282D, N317D, G318F
light: not shown
notes: EU numbering; copies: 2 + 2
B28: IgG1-F870 (antibody)
heavy: B1 heavy with L237K, S241K, E282D, T309Q, Q313A
light: not shown
notes: EU numbering; copies: 2 + 2
B29: IgG1-F868 (antibody)
heavy: B1 heavy with G238A, S241D, E282D, N288E, T309Q, Q313A
light: not shown
notes: EU numbering; copies: 2 + 2
B30: IgG1-F878 (antibody)
heavy: B1 heavy with E282D, Y438F
light: not shown
notes: EU numbering; copies: 2 + 2
B31: IgG1-F921 (antibody)
heavy: B1 heavy with E282D, N288E, N386A, N391A
light: not shown
notes: EU numbering; copies: 2 + 2
B32: IgG1-F900 (antibody)
heavy: B1 heavy with E282D, N317D, G318D
light: not shown
notes: EU numbering; copies: 2 + 2
B33: IgG1-F920 (antibody)
heavy: B1 heavy with E282D, N288S, N386A, N391A
light: not shown
notes: EU numbering; copies: 2 + 2
B34: IgG1-F852 (antibody)
heavy: B1 heavy with E282G
light: not shown
notes: EU numbering; copies: 2 + 2
B35: IgG1-F910 (antibody)
heavy: B1 heavy with E282D, N317D, G318Q
light: not shown
notes: EU numbering; copies: 2 + 2
B36: IgG1-F911 (antibody)
heavy: B1 heavy with E282D, N317D, G318R
light: not shown
notes: EU numbering; copies: 2 + 2
B37: IgG1-F882 (antibody)
heavy: B1 heavy with E282D, Y438L
light: not shown
notes: EU numbering; copies: 2 + 2
B38: IgG1-F904 (antibody)
heavy: B1 heavy with E282D, N317D, G318I
light: not shown
notes: EU numbering; copies: 2 + 2
B39: IgG1-F873 (antibody)
heavy: B1 heavy with L237R, S241K, E282D, N288E
light: not shown
notes: EU numbering; copies: 2 + 2
B40: IgG1-F893 (antibody)
heavy: B1 heavy with L237K, S241K, E282D, Y438I
light: not shown
notes: EU numbering; copies: 2 + 2
B41: IgG1-F894 (antibody)
heavy: B1 heavy with L237R, S241K, E282D, Y438I
light: not shown
notes: EU numbering; copies: 2 + 2
B42: IgG1-F917 (antibody)
heavy: B1 heavy with E282D, N288S
light: not shown
notes: EU numbering; copies: 2 + 2
B43: IgG1-F913 (antibody)
heavy: B1 heavy with E282D, N317D, G318T
light: not shown
notes: EU numbering; copies: 2 + 2
B44: IgG1-F906 (antibody)
heavy: B1 heavy with E282D, N317D, G318L
light: not shown
notes: EU numbering; copies: 2 + 2
B45: IgG1-F855 (antibody)
heavy: B1 heavy with E282K
light: not shown
notes: EU numbering; copies: 2 + 2
B46: IgG1-F891 (antibody)
heavy: B1 heavy with E282D, Y438W
light: not shown
notes: EU numbering; copies: 2 + 2
B47: IgG1-F858 (antibody)
heavy: B1 heavy with E282N
light: not shown
notes: EU numbering; copies: 2 + 2
B48: IgG1-F914 (antibody)
heavy: B1 heavy with E282D, N317D, G318V
light: not shown
notes: EU numbering; copies: 2 + 2
B49: IgG1-F867 (antibody)
heavy: B1 heavy with E282D, N386A, N391A
light: not shown
notes: EU numbering; copies: 2 + 2
B50: IgG1-F918 (antibody)
heavy: B1 heavy with N386A, N391A
light: not shown
notes: EU numbering; copies: 2 + 2
B51: IgG1-F880 (antibody)
heavy: B1 heavy with E282D, Y438H
light: not shown
notes: EU numbering; copies: 2 + 2
B52: IgG1-F883 (antibody)
heavy: B1 heavy with E282D, Y438M
light: not shown
notes: EU numbering; copies: 2 + 2
B53: IgG1-F892 (antibody)
heavy: B1 heavy with S256T, E282D, Y438I
light: not shown
notes: EU numbering; copies: 2 + 2
B54: IgG1-F903 (antibody)
heavy: B1 heavy with E282D, N317D, G318H
light: not shown
notes: EU numbering; copies: 2 + 2
B55: IgG1-F901 (antibody)
heavy: B1 heavy with E282D, N317D, G318E
light: not shown
notes: EU numbering; copies: 2 + 2

Residue numbers refer to the chain shown, from its start.
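Also: test antibodies captured on a Protein L chip with human FcRn flowed over as analyte, KD obtained as the ratio of dissociation to association rate constants.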

The target in the test is T1, soluble human FcRn complexed with β2-microglobulin (human, UniProt P61769 21-119, limits assumed).
T1 construct: also called hFcRn
T1 sequence (chain, as listed by the source limits assumed, chain 1 of 2): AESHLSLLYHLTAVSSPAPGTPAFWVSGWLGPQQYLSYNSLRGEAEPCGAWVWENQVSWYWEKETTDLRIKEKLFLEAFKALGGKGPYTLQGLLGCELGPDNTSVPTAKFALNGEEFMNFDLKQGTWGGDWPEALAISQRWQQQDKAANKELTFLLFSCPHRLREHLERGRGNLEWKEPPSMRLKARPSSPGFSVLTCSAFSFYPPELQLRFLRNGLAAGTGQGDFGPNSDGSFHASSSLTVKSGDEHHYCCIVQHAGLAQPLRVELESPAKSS
T1 sequence (P61769 21-119 limits assumed, chain 2 of 2): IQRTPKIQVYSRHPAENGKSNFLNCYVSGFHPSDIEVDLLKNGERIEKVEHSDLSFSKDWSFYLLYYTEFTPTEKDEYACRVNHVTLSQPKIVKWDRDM
Put plainly: Biacore SPR, pH 7.0. (In SPR one partner is held on a chip, and binding of the other changes the refractive index at the surface.)
As a reminder, the Kd is a measure of binding affinity in units of concentration. High values mean lower affinity, low ones higher affinity. For B1, the Kd came to 290 nM.

Consider B2, for which the Kd came out at 130 nM.

In turn, B3 displayed a Kd of 130 nM.

In the case of B4, the affinity, expressed as Kd, was 110 nM. This Kd and that of the molecule before are within 1.5-fold of each other.

As to B5, the equilibrium dissociation constant (Kd) was 400 nM.

In the case of B6, the Kd was 130 nM.

For the molecule B7, the affinity, expressed as Kd, was 130 nM.

B8: binding was put at a Kd of 97 nM.

Turning to B9, binding was put at a Kd of 120 nM.

With B10, the Kd was 230 nM.

For B11, binding was put at a Kd of 920 nM. This Kd is about 4-fold higher than that of the molecule before.

Molecule B12 had a Kd of 220 nM. Compared with the last molecule, the Kd is about 4.2-fold lower.

With B13, the Kd was 320 nM. This Kd and that of the molecule before are within 1.5-fold of each other.

In turn, B14 registered a dissociation constant Kd of 71 nM.

Regarding B15, binding was put at a Kd of 20 nM. This Kd is about 3.5-fold lower than that of the molecule before.

The molecule B16 yielded a Kd of 170 nM.

The molecule B17 returned a Kd of 300 nM.

In the case of B18, the Kd is 830 nM.

In the case of B19, the dissociation constant Kd was determined as 21 nM.

In the case of B20, the Kd came out at 480 nM.

B21 displayed a Kd of 320 nM. Against the preceding molecule, the Kd is about 1.5-fold lower.

The molecule B22 returned a Kd of 270 nM.

Molecule B23 came in with a Kd of 310 nM.

B24 registered a Kd of 480 nM.

Turning to B25, the Kd turned out to be 330 nM.

For the molecule B26, the Kd is 150 nM.

In the case of B27, the equilibrium dissociation constant (Kd) was determined as 220 nM.

For B28, the affinity, expressed as Kd, was 73 nM.

The molecule B29 displayed a Kd of 20 nM. Against the preceding molecule, the Kd is about 3.6-fold lower.

As for B30, the dissociation constant Kd was determined as 190 nM.

In turn, B31 gave a Kd of 120 nM.

Regarding B32, the Kd was 170 nM. This Kd and that of the molecule before are within 1.5-fold of each other.

Take B33: the Kd stood at 250 nM. The Kd values of the last two molecules are within 1.5-fold of each other.

B34 showed a Kd of 330 nM. The Kd values of the last two molecules are within 1.5-fold of each other.

In the case of B35, the Kd was found to be 140 nM.

Regarding B36, the Kd is 130 nM.

B37 registered a Kd of 130 nM.

As for B38, binding was characterised by a dissociation constant (Kd) of 100 nM.

As to B39, the Kd was found to be 120 nM. The Kd values of the last two molecules are within 1.5-fold of each other.

In turn, B40 displayed a Kd of 98 nM. This Kd and that of the molecule before are within 1.5-fold of each other.

B41 came in with a Kd of 92 nM.

Molecule B42 returned a Kd of 250 nM.

In turn, B43 gave a dissociation constant (Kd) of 110 nM. Against the preceding molecule, the Kd is about 2.3-fold lower.

In turn, B44 had a Kd of 150 nM.

Turning to B45, the dissociation constant (Kd) is 320 nM.

Consider B46, for which binding was characterised by a dissociation constant (Kd) of 170 nM.

On to B47, for which the dissociation constant Kd was found to be 320 nM.

For B48, the equilibrium dissociation constant (Kd) came out at 150 nM.

With B49, binding was put at a Kd of 280 nM. Compared with the last molecule, the Kd is about 1.9-fold higher.

In turn, B50 gave a Kd of 280 nM.

B51 had a Kd of 390 nM.

B52 had a Kd of 210 nM.

The molecule B53 displayed a Kd of 71 nM.

As to B54, the Kd stood at 230 nM.

Turning to B55, the Kd stood at 130 nM.
